Experimental data from paper PMC8096239, “Nse5/6 is a negative regulator of the ATPase activity of the Smc5/6 complex”.

Target: Smc5/6 holo-complex (S5-S6-N2/N1-N3-N4);Nse5/6 (Saccharomyces cerevisiae;Saccharomyces …, UniProt Q08204;Q12749;P38632;Q07913;Q05541;P43124;Q03718;P40026 …, |)
Assay: EMSA; purified super-complex containing Nse5/6; no significant perturbation vs holo-complex; EMSA: 200 nM hairpin, 20 mM HEPES-NaOH pH 7.5, 150 mM NaCl, 0.5 mM TCEP, 30 min at 4 C; 0.8% TBE-agarose gel, 50 V, 3 h, 4 C
Conditions: protein: recombinant;recombinant, tags: Smc5-FLAG, Smc6-AVI-HIS, HA-Nse2, HIS-TEV-Nse1, Nse3 untagged, Nse4-HALO-Myc;Nse5-C.tag (GAAEPEA), HIS-3C-Nse6, copies: 1;1;1;1;1;1;1;1, label: fluorescein on position 5 of thymine, 6-carbon spacer, 48 bp stem, 4 nt loop AATA, blunt end

B1: oligonucleotide C, self-annealed dsDNA hairpin (structured_DNA)
DNA: ATCAGTACTTGTCAACACGAGCAGCCCGTATATTCTCCTACAGCACTAAATATAGTGCTGTAGGAGAATATACGGGCTGCTCGTGTTGACAAGTACTGAT
modifications: internal fluorescein-dT (iFT), between S3 and S4 (position 51, in loop)
Does B1 bind?
Result: binds
